The target in one series is T1, ^GFPHtt^ex1Q23 (Homo sapiens, UniProt P42858, DUP37-38).
T1 construct: encoding pEGFP huntingtin exon-1 with 23 (^GFPHtt^ex1Q23) or 74 (^GFPHtt^ex1Q74) glutamines; host or cells: HEK293
The series can be described thus: GFPHttex1Q23 levels in transfected HEK293 cells (western blot). To be noted: HEK293, 48 hours post-transfection. Format: cell-based. The method, then:
Transfections were performed with Lipofectamine 2000 (Invitrogen by ThermoFisher Scientific) and adapted from the manufacturer's instructions. Briefly, cells were plated on either 12-well or 6-well plates and transfected at 50-70% confluency. For 12-well transfections, 0.833 μg of DNA per well was mixed with 50 μl of OptiMEM (Gibco by Life Technologies) media and incubated for 5 minutes at room temperature. Lipofectamine 2000 in a 2:1, μl of lipofectamine: μg DNA ratio was mixed with 50 μl of OptiMEM media and incubated for 5 minutes at room temperature. DNA and Lipofectamine were mixed and incubated for 15 minutes at room temperature. Fresh media was added to cells prior to the addition of DNA and lipofectamine. For 6-well transfections, the same protocol is followed except that 1.25 μg of DNA per well and 100 μl of OptiMEM for dilution was used. Media was changed 24 hours post-transfection and cells were harvested 48 hours post-transfection. Prior to harvesting, HEK293 cells were washed three times with ice-cold 1×PBS. Samples were then lysed with either 150 μl of ice-cold NETN (with protease inhibitor) or 1× Laemmli Buffer and sonicated twice for 5-8 seconds.
Following sonication, lysates were subjected to BCA protein assay (ThermoFisher Scientific) and prepared for loading by the addition of 4× laemmli buffer and boiling for four minutes. […]
In general terms: Immunoblotting shows a protein as a band on a membrane.

The subject of series [1] is mutant (G85R or A4V) SOD1. In words: Aggregated mutant SOD1 in HEK293 cells (ultracentrifugation, western blot). Format: cell-based, human. The conditions noted are these: HEK293, 48 hours, overexpression of SRCP1. As for the experimental part:
HEK293 cells were transfected with either wild-type or mutant (G85R or A4V) SOD1 either in the presence or absence of SRCP1 for 48 hours. Cells were then collected and lysed prior to ultracentrifugation to isolate aggregated proteins. After ultracentrifugation cell protein in the pellet was suspended in Laemmli buffer and analyzed by SDS-PAGE and western blot

The subject of series [2] is wild-type or mutant α-synuclein. The series can be described thus: α-synuclein levels in HEK293 cells (western blot). Format: cell-based, human. To be noted: HEK293, 48 hours, overexpression of SRCP1. The method, then: HEK 293 cells were transfected with either wild-type or mutant α-synuclein in the presence or absence of SRCP1. Cells were collected 48 hours later and analyzed by SDS-PAGE and western blot.

The next series addresses ^GFPHtt^ex1Q74 (Homo sapiens, UniProt P42858). The series can be described thus: GFPHttex1Q74 puncta in iPSC-derived neurons. Set-up: encoding pEGFP huntingtin exon-1 with 23 (^GFPHtt^ex1Q23) or 74 (^GFPHtt^ex1Q74) glutamines; host or cells: human iPSC-derived neurons (mixed cultures with astrocytes). To be noted: co-expression. Format: cell-based. As for the experimental part:
iPSC transfections were performed with mixed cultures of astrocytes and neurons adhered to matrigel-coated coverslips, seeded at 2.6×10^4 cells/cm^2. iPSC transfections were performed using Lipofectamine 2000 according to the manufacturer's instructions and recommended DNA concentrations for a 24-well transfection.
Plated iPSC derived cultures of astrocytes and neurons were fixed with 4% paraformaldehyde in PBS for 20 minutes at room temperature, 3-5 days after transfection. Cells were permeabilized and blocked prior to antibody labeling. Nuclei were labeled with Hoechst nuclear dye. Primary antibodies used were rabbit anti-Tuj1 (Covance MRB-435P), chicken anti-Tuj1(Gene Tex, GTX85469) and mouse anti-GFAP (Cell Signaling, 3670). Images were taken using an upright Nikon fluorescent microscope with a 40× objective. The number of neural cells with GFP positive puncta was quantified using NIS Elements object quantification tool (Nikon) and neurite length was measured using NIS Elements length measurement tool (Nikon).

Sequence of ^GFPHtt^ex1Q74 (P42858 with tags, fused parts or gaps): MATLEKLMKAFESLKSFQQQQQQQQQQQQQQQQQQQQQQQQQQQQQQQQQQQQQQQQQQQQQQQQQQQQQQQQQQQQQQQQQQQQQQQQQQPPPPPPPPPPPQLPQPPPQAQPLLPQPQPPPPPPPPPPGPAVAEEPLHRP
T1 sequence (P42858 with tags, fused parts or gaps DUP37-38): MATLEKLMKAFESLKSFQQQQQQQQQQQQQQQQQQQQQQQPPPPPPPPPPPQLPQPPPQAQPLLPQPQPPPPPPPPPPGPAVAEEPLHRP

B1: SRCP1: Dictyostelium discoideum serine-rich chaperone protein 1 (SEQ ID NO:2), expressed in cells as RFP-tagged construct (protein)
chain: MTILSTFTSFSNPPKLNKSSFSSSTGSSLSMGSNSFAWGGGWGGFGGPKGGSFNVDIAGNLIWGVYGFIRGGVGLVKWRGLQKGCKQP
modifications: RFP tag; Dictyostelium discoideum AX4
Regarding B1, the “levels of GFPHttex1Q23” value in the series with ^GFPHtt^ex1Q23 was “did not alter the levels of”. Moreover, in series [1], the “levels of aggregated mutant SOD1” value was “reduces the levels of aggregated mutant SOD1”. In addition, in series [2], the α-synuclein levels result was “results in a reduction of α-synuclein”. The GFPHttex1Q74 puncta entry with ^GFPHtt^ex1Q74 was “dramatic decrease in ^GFPHtt^ex1Q74 puncta”.

(Values after patent publication US20200207835A1, “SRCP1-BASED THERAPY FOR DISEASES ASSOCIATED WITH PROTEIN AGGREGATION” (THE MEDICAL COLLEGE OF WISCONSIN, INC., priority 2017, published 2020).)
